# Laboratory results: paper PMC8115288, “INI1/SMARCB1 Rpt1 domain mimics TAR RNA in binding to integrase to facilitate HIV-1 replication” (Nature Communications, 2021)
# Target: T1, GST-CTD (C-terminal domain of HIV-1 integrase, aa 201-288) (HIV-1 (Hx3B), UniProt P04585 1348-1435)
# T1 construct: Integrase (IN) of HIV-1, C-terminal domain aa 201-288; template HIV-1 Hx3B DNA (P04585 is isolate HXB2); also called IN-CTD; GST-IN-CTD(aa 201-288); source: pGEX3xPL construct; on glutathione sepharose 4B beads (pull-down) or as GST-tagged protein (AlphaScreen)
# Assay: AlphaScreen or HTRF; competition: GST-CTD (0.03 uM) with Bio-TAR RNA (0.1 uM), increasing INI1(183-304) as third component; low salt; four-parameter dose-response fit
# Conditions: both partners purified
binder,measurement,value
"His6-SUMO-INI1_(183-304) (domain or fragment, UniProt Q12824 183-304, looked up, INI1/SMARCB1, residues 183-304 (Rpt1, linker and part of Rpt2); Vector pET28a-h6-smt3; also called 6His-SUMO-INI1_(183-304); source: E. coli; clarified bacterial cell lysate for the pull-down) PEVLVPIRLDMEIDGQKLRDAFTWNMNEKLMTPEMFSEILCDDLDLNPLTFVPAIASAIRQQIESYPTDSILEDQSDQRVIIKLNIHVGNISLVDQFEWDMSEKENSPEKFALKLCSELGLG",IC50,~5 nM
